The text below walks through data of US20260242482A1 (ONO PHARMACEUTICAL, published 2026).

For experiment [1], the target named is T1, mouse PD-L1 (mouse, UniProt Q9EP73 19-290).
T1 construct: Overexpressed on IIAdL1 cells or DOdKO cells; also called mPD-L1; CD274
The description is as described for the mutants of Test 3; no separate experiment told for the double mutant.

The target of experiment [2] is T1, mouse PD-L1. The description is as described for the mutants of Test 3 (PD-1-EC staining of cells co-expressing PD-L1).
A further experiment has as its target T2, mouse CD80 (mouse, UniProt Q00609 38-306).
T2 construct: Overexpressed on IIAdL1 cells or DOdKO cells; also called mCD80
T2 sequence: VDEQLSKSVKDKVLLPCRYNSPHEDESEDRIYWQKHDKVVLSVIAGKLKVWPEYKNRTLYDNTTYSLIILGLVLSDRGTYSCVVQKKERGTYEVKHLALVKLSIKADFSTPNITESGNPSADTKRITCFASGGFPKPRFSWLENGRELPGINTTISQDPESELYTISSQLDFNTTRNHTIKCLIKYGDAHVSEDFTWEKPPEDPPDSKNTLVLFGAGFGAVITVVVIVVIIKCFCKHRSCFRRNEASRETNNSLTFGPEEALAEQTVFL
The experiment can be described thus: flow cytometry, IIAdL1 cells expressing CD80 alone, soluble PD-1-EC.

Experiment [3] has as its target T1, mouse PD-L1. The experiment can be described thus: flow cytometry; DOdKO-mPD-L1/mCD80 cells pretreated with 10 ug/ml TKMG48 or control IgG, stained with mouse PD-1-EC; (TKMG48 treated group-control group)/(control IgG group-control group).
Experiment [4] deals with T3, human PD-L1 (human, UniProt Q9NZQ7 19-290).
T3 construct: Expressed on IIAdL1 or DOdKO cells; also called hPD-L1
The experiment in a line: co-immunoprecipitation, IIAdL1 cells expressing the human molecules, western blot.

Experiment [5] concerns the target T3, human PD-L1. The experiment is described as described for the mutants of Test 4; no separate experiment told for the double mutant.
Experiment [6] has as its target T3, human PD-L1. The experiment can be described thus: flow cytometry; PD-1-EC staining of IIAdL1 cells (FIG. 29).
Experiment [7] concerns the target T3, human PD-L1. The experiment can be described thus: flow cytometry; DOdKO-hPD-L1/hCD80 cells pretreated with 30 ug/mL TKMF5, stained with human PD-1-EC. (A flow cytometer gives signals particle by particle.)

T1 sequence (Q9EP73 19-290 limits assumed): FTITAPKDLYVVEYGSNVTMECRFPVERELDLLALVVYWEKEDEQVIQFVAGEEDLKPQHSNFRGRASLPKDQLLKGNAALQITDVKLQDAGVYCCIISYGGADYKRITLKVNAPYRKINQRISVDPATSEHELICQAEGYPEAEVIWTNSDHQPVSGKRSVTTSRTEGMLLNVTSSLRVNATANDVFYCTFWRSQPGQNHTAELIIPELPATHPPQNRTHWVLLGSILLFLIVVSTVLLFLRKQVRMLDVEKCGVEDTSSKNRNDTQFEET
T3 sequence (Q9NZQ7 19-290 limits assumed): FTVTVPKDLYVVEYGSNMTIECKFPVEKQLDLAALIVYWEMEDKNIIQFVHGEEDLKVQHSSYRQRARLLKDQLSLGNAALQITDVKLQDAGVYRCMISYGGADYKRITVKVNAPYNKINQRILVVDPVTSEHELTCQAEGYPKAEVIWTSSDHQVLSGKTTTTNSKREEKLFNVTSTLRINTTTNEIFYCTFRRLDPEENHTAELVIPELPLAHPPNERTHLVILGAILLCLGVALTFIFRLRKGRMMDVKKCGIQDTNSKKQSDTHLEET

B1: mouse CD80 with the L96E and L107E mutations (ligand)
chain: VDEQLSKSVKDKVLLPCRYNSPHEDESEDRIYWQKHDKVVLSVIAGKLKVWPEYKNRTEYDNTTYSLIIEGLVLSDRGTYSCVVQKKERGTYEVKHLALVKLSIKADFSTPNITESGNPSADTKRITCFASGGFPKPRFSWLENGRELPGINTTISQDPESELYTISSQLDFNTTRNHTIKCLIKYGDAHVSEDFTWEKPPEDPPDSKNTLVLFGAGFGAVITVVVIVVIIKCFCKHRSCFRRNEASRETNNSLTFGPEEALAEQTVFL
For the molecule B1, the binding result in the experiment with mouse PD-L1 [1] is reported as “no binding”.

B2: mouse CD80L107E (ligand)
chain: VDEQLSKSVKDKVLLPCRYNSPHEDESEDRIYWQKHDKVVLSVIAGKLKVWPEYKNRTLYDNTTYSLIIEGLVLSDRGTYSCVVQKKERGTYEVKHLALVKLSIKADFSTPNITESGNPSADTKRITCFASGGFPKPRFSWLENGRELPGINTTISQDPESELYTISSQLDFNTTRNHTIKCLIKYGDAHVSEDFTWEKPPEDPPDSKNTLVLFGAGFGAVITVVVIVVIIKCFCKHRSCFRRNEASRETNNSLTFGPEEALAEQTVFL
notes: also called L107E mutant
For B2, the binding result with mouse PD-L1 [2] is reported as “no binding”.

B3: mouse CD80 with the L96E mutation (ligand)
chain: VDEQLSKSVKDKVLLPCRYNSPHEDESEDRIYWQKHDKVVLSVIAGKLKVWPEYKNRTEYDNTTYSLIILGLVLSDRGTYSCVVQKKERGTYEVKHLALVKLSIKADFSTPNITESGNPSADTKRITCFASGGFPKPRFSWLENGRELPGINTTISQDPESELYTISSQLDFNTTRNHTIKCLIKYGDAHVSEDFTWEKPPEDPPDSKNTLVLFGAGFGAVITVVVIVVIIKCFCKHRSCFRRNEASRETNNSLTFGPEEALAEQTVFL
notes: also called CD80 L96E
On to B3, for which the binding result with mouse PD-L1 [2] is “no binding”.

B4: soluble mouse PD-1 extracellular region (PD-1-EC) protein (receptor)
chain: LEVPNGPWRSLTFYPAWLTVSEGANATFTCSLSNWSEDLMLNWNRLSPSNQTEKQAAFCNGLSQPVQDARFQIIQLPNRHDFHMNILDTRRNDSGIYLCGAISLHPKAKIEESPGAELVVTERILETSTRYPSPSPKPEGRFQDYKDDDDK
notes: domain: five-stranded coiled coil domain; Soluble chimeric protein from 293T or Plat-E culture supernatant; also called mouse PD-1-EC; mPD-1; not shown: five-stranded coiled coil domain of cartilage oligomer matrix protein (Terskikh et al. 1997), fused to the C-terminus
In the case of B4, the binding result with mouse CD80 is “no binding”. Besides, the “amount of binding (mean fluorescence intensity) after TKMG48 pretreatment relative to control IgG pretreatment” value with mouse PD-L1 [3] is roughly 10.1 times.

B5: human CD80 (ligand)
chain: VIHVTKEVKEVATLSCGHNVSVEELAQTRIYWQKEKKMVLTMMSGDMNIWPEYKNRTIFDITNNLSIVILALRPSDEGTYECVVLKYEKDAFKREHLAEVTLSVKADFPTPSISDFEIPTSNIRRIICSTSGGFPEPHLSWLENGEELNAINTTVSQDPETELYAVSSKLDFNMTTNHSFMCLIKYGHLRVNQTFNWNTTKQEHFPDNLLPSWAITLISVNGIFVICCLTYCFAPRCRERRRNERLRRESVRPV
notes: Expressed on IIAdL1, DOdKO or DOdPD cells; also called hCD80
As for B5, in the experiment with human PD-L1 [4], the binding result is reported as “binds”.

B6: human CD80 mutant (having I92E and L104E mutations) lacking the ability to bind to human PD-L1 (ligand)
chain: VIHVTKEVKEVATLSCGHNVSVEELAQTRIYWQKEKKMVLTMMSGDMNIWPEYKNRTEFDITNNLSIVIEALRPSDEGTYECVVLKYEKDAFKREHLAEVTLSVKADFPTPSISDFEIPTSNIRRIICSTSGGFPEPHLSWLENGEELNAINTTVSQDPETELYAVSSKLDFNMTTNHSFMCLIKYGHLRVNQTFNWNTTKQEHFPDNLLPSWAITLISVNGIFVICCLTYCFAPRCRERRRNERLRRESVRPV
As to B6, in the experiment with human PD-L1 [5], the binding result is “no binding”.

B7: human CD80I92E (ligand)
chain: VIHVTKEVKEVATLSCGHNVSVEELAQTRIYWQKEKKMVLTMMSGDMNIWPEYKNRTEFDITNNLSIVILALRPSDEGTYECVVLKYEKDAFKREHLAEVTLSVKADFPTPSISDFEIPTSNIRRIICSTSGGFPEPHLSWLENGEELNAINTTVSQDPETELYAVSSKLDFNMTTNHSFMCLIKYGHLRVNQTFNWNTTKQEHFPDNLLPSWAITLISVNGIFVICCLTYCFAPRCRERRRNERLRRESVRPV
In the case of B7, the binding result with human PD-L1 [6] is on record as “no binding”.

B8: human CD80L104E mutant (ligand)
chain: VIHVTKEVKEVATLSCGHNVSVEELAQTRIYWQKEKKMVLTMMSGDMNIWPEYKNRTIFDITNNLSIVIEALRPSDEGTYECVVLKYEKDAFKREHLAEVTLSVKADFPTPSISDFEIPTSNIRRIICSTSGGFPEPHLSWLENGEELNAINTTVSQDPETELYAVSSKLDFNMTTNHSFMCLIKYGHLRVNQTFNWNTTKQEHFPDNLLPSWAITLISVNGIFVICCLTYCFAPRCRERRRNERLRRESVRPV
Turning to B8, the binding result in the experiment with human PD-L1 [6] is given as “no binding”.

B9: human PD-1-EC (receptor)
chain: LDSPDRPWNPPTFSPALLVVTEGDNATFTCSFSNTSESFVLNWYRMSPSNQTDKLAAFPEDRSQPGQDCRFRVTQLPNGRDFHMSVVRARRNDSGTYLCGAISLAPKAQIKESLRAELRVTERRAEVPTAHPSPSPRPAGQFQDYKDDDDK
notes: domain: five-stranded coiled coil domain; also called human PD-1 extracellular region soluble chimeric protein; hPD-1; not shown: five-stranded coiled coil domain of cartilage oligomer matrix protein (Terskikh et al. 1997), fused to the C-terminus
For B9, the “ratio of cells that bound to PD-1-EC” value with human PD-L1 [7] was roughly 50%.
